Results: patent US11066655B2, “RNA polymerase, methods of purification and methods of use” (President and Fellows of Harvard College, priority 2013, dated 2021)

B1: Syn5 RNAP: single subunit DNA-dependent RNA polymerase from marine cyanophage Syn5, amino acid sequence SEQ ID NO:23 (protein)
chain: MSFDLIARQLQRETEAAELARKRLQDARREANERSYASSNIESRKAIATFLDPIAQRIGERLFTLRRGTGAVDAAEVYKHLKNADHHHLALITMKTALDVLGKDPEPQIQQLTTAIGRNIQLELRLTYYAEENPELYKQASRFFHAGTGTRQKATVIKLKFNREGIEWDQWSRVTCHKVGQWLMLAMADVTGWIERATDRTSGGRKTKTRICYSREFLQHRDTILAAAEQLAFCQWPMLCPPIEWSNDHNGGYLSEQIRRVNPLIRKTGPLGTRKQGDIPLAMLNNLQGQAYKVNPEVLDIANHCYESNVTVGKFIRHAPLPVPPSPGEDCTEDQLTAYKRARREAEDFNAQISQKNWRTTEVMYVARKYADEASFWMPASFDYRGRVYFLNTALNPQGTDFDKALLYFAEEGPVNEWWLSFHVATTYGLDKETMVNRVQWARDNHELIDRIASDPVRHTEWHDADEPWCFLAACLEYKACVIDGTKQTSGLPIGIDATCSGLQHLAAMTRCGRTAALVNVTPTDKPADAYKTVAQASLKHLPKEQHEWITRKVTKRPVMCTPYGVTMSSARGYIRDQLVKDGHKEDLRSPGVLNGIVKAIFNEAIPEVIPGPVQVMAWLKRSAGQIIDRGDSTITWTTPSGFEVVQDLKKSKTYEVKTRIMGGARIKLQVGDGFTDEPDRDHHKSALAPNVVHSNDASLLHLTFAFWDKPFTVIHDCVLGRSCDMDQMGSDIRLHFAEMYKADVMQDWADQVGVELPVDLIKNTLDIDSVNQSLYFFS
modifications: Amino acid sequence of a cyanophage Syn5 RNAP

Columns and labels:
[1] = tested on: T7 promoter; experiment: Cross recognition of promoters, gel transcription assay; assay type: biochemical, bacteriophage T7; settings: T7 DNA fragment with T7 Φ1.1 B promoter
Protocol: FIGS. 3A-3C depict characterization of the Syn5 promoter. A) Determination of the 3′-end of Syn5 promoter. 3′-dATP, 3′-dGTP, 3′-dUTP replaced ATP, GTP and UTP, respectively, as chain terminator to sequence the 5′-end of Syn5 RNAP transcript on a template same as template 1 in FIG. 2B. Once the 5′-terminus of the transcript was determined, the sequence preceding it should be the promoter and the 3′-end of the promoter can thus be defined. A 25% TBE-urea gel was used for this assay. B) Cross recognition between Syn5 and T7 transcription systems. Syn5 RNAP synthesizes runoff products on a fragment of T7 DNA provided the T7 promoter is replaced by a Syn5 promoter (lane a). Syn5 RNAP fails to produce transcripts if the first nucleotide downstream of the promoter is changed from G to T (lane b). […]
For the gel assay results shown in FIGS. 1, 2, 3, and 13, reaction mixtures (20 μl) contained 40 mM Tris-HCl (pH 7.9), 6 mM MgCl2, 2 mM spermidine, 10 mM DTT, 200 µM[…]P, GTP and UTP, 10 µM [[…]-^32P]CTP, 1.5 U/µl RNaseOUT™ recombinant ribonuclease inhibitor (Invitrogen), 100 nM Syn5 or T7 RNAP, and DNA templates as described in the figure legends (either 2 nM phage genomic DNA, 4 nM purified PCR products, or 1 µM synthetic dsDNA fragments). […] After electrophoresis, gels were dried and analyzed using a Fuji BAS 1000 Bioimaging Analyzer.

[2] = tested on: pUC19-S5P or pUC19-T7P; experiment: Processivity gel assay, rolling-circle synthesis on single-promoter plasmids; assay type: biochemical
Protocol: FIGS. 9A-9H depict the processivity of Syn5 and T7 RNA polymerases. A) Agarose gel showing RNA synthesis by previously purified Syn5 RNA polymerase, newly purified Syn5 RNA polymerase with the improved procedure, and T7 RNA polymerase on a plasmid template containing a single cognate promoter (as shown in the schematic). B) Product as shown in A) by S5N2 RNA polymerase was incubated with 1 U/[…]1 RNase I or DNase I to confirm its RNA nature. C) Effect of increasing KCl concentration on Syn5 RNA polymerase transcription. D) Products by Syn5 and T7 RNAP in a rolling-circle manner were analyzed at denaturing condition. E) Same assay as D) except that the template plasmids were linearized as shown in the schematic. F) & G) Decreasing the concentration of T7 (F) and Syn5 (G) RNA polymerase reduced the abortive products due to clash of RNA polymerases at promoter region. H) RNA polymerase promoter distribution on coliphage T7 and cyanophage Syn5 genomes.
DNA templates for transcription assays were either plasmids or dsDNA fragments made of synthesized oligonucleotides. To test the processivity of Syn5 and T7 RNAP, a single Syn5 or T7 promoter plus 3 guanosine downstream of the promoter (Syn5 5′-ATTGGGCACCCGTAAGGG-3′ (SEQ ID NO:1) or T7 5′-[…]-3′) (SEQ ID NO:2) was inserted between the BamHI and XbaI sites of plasmid pUC19 to form pUC19-S5P or pUC19-T7P. The templates for run-off tRNA^Arg synthesis were formed by annealing of two complementary synthesized DNA oligos of which sequences are as following:
For the results shown in FIG. 9, reaction mixtures (10 μl) contained 40 mM Tris-HCl pH 8.0, 6 mM MgCl2, 2 mM spermidine, 10 mM DTT, 600 µM[…]P, GTP, CTP, and UTP, 1.5 U/µl RNaseOUT™ recombinant ribonuclease inhibitor, 0.04 U/µl yeast inorganic pyrophosphatase, 10 nM pUC19-Syn5P3G or pUC19-T7P3G, 10 nM Syn5 or T7 RNAP and various amount of KCl as noted in the figure or described in the figure legend. After 1 hr incubations at RT, one unit of DNase I was added to each reaction mixture and incubated for an additional 15 min at 37° C. to remove the DNA templates. For FIGS. 8A-8C, 2 µl reaction mixture was directly mixed with native loading dye and loaded onto 1.6% TAE agarose gel. For FIGS. 8D-8F, RNA products were purified with RNA Clean & Concentrator™-5 kit into a final solution of 10 µl and 5 µl each was mixed with 5 µl denaturing RNA loading dye (New England Biolabs). Samples were then heated at 65° C. for 5 min and loaded onto 1.6% TAE agarose gel. RNA products were visualized by ethidium bromide staining.

| Molecule | transcription from a T7 promoter [1] | apparent processivity [2] | processivity [2] | length approached by some products ([2]; low enzyme concentration) [kilo nt] | length of most products ([2]; low enzyme concentration) |
| --- | --- | --- | --- | --- | --- |
| T7 RNAP: RNA polymerase encoded by bacteriophage T7, from New England Biolabs [reference compound] | initiates transcription and produces a runoff transcript | – | – | – | – |
| B1 | does not recognize a T7 promoter | over 30 kilo nucleotides | greater than 30,000 nt | ~30 | over 9 kilo nt |
